Here are results for one molecule from publication PMC4058522, “Structural Basis for Phosphorylation-Dependent Recruitment of Tel2 to Hsp90 by Pih1” (Structure(London, England:1993), 2014).

The target in the assay is T1, Tah1 (yeast, full-length) (yeast), P25638.
T1 chain: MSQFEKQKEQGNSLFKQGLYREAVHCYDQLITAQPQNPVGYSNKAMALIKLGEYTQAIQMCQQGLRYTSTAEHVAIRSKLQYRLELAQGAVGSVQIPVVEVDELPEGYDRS
Briefly: cross-linking; lysine-specific crosslinker DMS, in solution, SDS-PAGE. The settings on record: remark: other sources report otherwise.

B1: Tah1 (yeast, full-length), P25638 1-111 (natural protein)
chain: T1 chain
As to B1, the stoichiometry N (as a rule, the number of molecules, sites or subunits per partner or assembly) came to 2.
